Assay results reported in patent US20110263827A1 (AbbVie / Abbott, published 2011).

B1: DVD779 (bispecific antibody)
VH: QVQLQESGPGLVKPSQTLSLTCTVSGYSISSDFAWNWIRQPPGKGLEWMGYISYSGNTRYQPSLKSRITISRDTSKNQFFLKLNSVTAADTATYYCVTAGRGFPYWGQGTLVTVSSASTKGPSVFPLAPEVQLVESGGGLVQPGGSLRLSCAASGYTFTNYGMNWVRQAPGKGLEWVGWINTYTGEPTYAADFKRRFTFSLDTSKSTAYLQMNSLRAEDTAVYYCAKYPHYYGSSHWYFDVWGQGTLVTVSS
VL: DIQMTQSPSSMSVSVGDRVTITCHSSQDINSNIGWLQQKPGKSFKGLIYHGTNLDDGVPSRFSGSGSGTDYTLTISSLQPEDFATYYCVQYAQFPWTFGGGTKLEIKRTVAAPSVFIFPPDIQMTQSPSSLSASVGDRVTITCSASQDISNYLNWYQQKPGKAPKVLIYFTSSLHSGVPSRFSGSGSGTDFTLTISSLQPEDFATYYCQQYSTVPWTFGQGTKVEIKR
notes: DVD-Ig; HC L, LC L; variable parts only
B2: DVD809 (bispecific antibody)
VH: B1 VH
VL: DIQMTQSPSSMSVSVGDRVTITCHSSQDINSNIGWLQQKPGKSFKGLIYHGTNLDDGVPSRFSGSGSGTDYTLTISSLQPEDFATYYCVQYAQFPWTFGGGTKLEIKRTVAAPDIQMTQSPSSLSASVGDRVTITCSASQDISNYLNWYQQKPGKAPKVLIYFTSSLHSGVPSRFSGSGSGTDFTLTISSLQPEDFATYYCQQYSTVPWTFGQGTKVEIKR
notes: DVD-Ig; HC L, LC S; variable parts only
B3: DVD839 (bispecific antibody)
VH: QVQLQESGPGLVKPSQTLSLTCTVSGYSISSDFAWNWIRQPPGKGLEWMGYISYSGNTRYQPSLKSRITISRDTSKNQFFLKLNSVTAADTATYYCVTAGRGFPYWGQGTLVTVSSASTKGPEVQLVESGGGLVQPGGSLRLSCAASGYTFTNYGMNWVRQAPGKGLEWVGWINTYTGEPTYAADFKRRFTFSLDTSKSTAYLQMNSLRAEDTAVYYCAKYPHYYGSSHWYFDVWGQGTLVTVSS
VL: B1 VL
notes: DVD-Ig; HC S, LC L; variable parts only
B4: DVD789 (bispecific antibody)
VH: QVQLQESGPGLVKPSQTLSLTCTVSGYSISSDFAWNWIRQPPGKGLEWMGYISYSGNTRYQPSLKSRITISRDTSKNQFFLKLNSVTAADTATYYCVTAGRGFPYWGQGTLVTVSSASTKGPSVFPLAPEVQLVESGGGLVQPGGSLRLSCAASGFTISDYWIHWVRQAPGKGLEWVAGITPAGGYTYYADSVKGRFTISADTSKNTAYLQMNSLRAEDTAVYYCARFVFFLPYAMDYWGQGTLVTVSS
VL: DIQMTQSPSSMSVSVGDRVTITCHSSQDINSNIGWLQQKPGKSFKGLIYHGTNLDDGVPSRFSGSGSGTDYTLTISSLQPEDFATYYCVQYAQFPWTFGGGTKLEIKRTVAAPSVFIFPPDIQMTQSPSSLSASVGDRVTITCRASQDVSTAVAWYQQKPGKAPKLLIYSASFLYSGVPSRFSGSGSGTDFTLTISSLQPEDFATYYCQQSYTTPPTFGQGTKVEIKR
notes: as for B1
B5: DVD819 (bispecific antibody)
VH: B4 VH
VL: DIQMTQSPSSMSVSVGDRVTITCHSSQDINSNIGWLQQKPGKSFKGLIYHGTNLDDGVPSRFSGSGSGTDYTLTISSLQPEDFATYYCVQYAQFPWTFGGGTKLEIKRTVAAPDIQMTQSPSSLSASVGDRVTITCRASQDVSTAVAWYQQKPGKAPKLLIYSASFLYSGVPSRFSGSGSGTDFTLTISSLQPEDFATYYCQQSYTTPPTFGQGTKVEIKR
notes: as for B2
B6: DVD849 (bispecific antibody)
VH: QVQLQESGPGLVKPSQTLSLTCTVSGYSISSDFAWNWIRQPPGKGLEWMGYISYSGNTRYQPSLKSRITISRDTSKNQFFLKLNSVTAADTATYYCVTAGRGFPYWGQGTLVTVSSASTKGPEVQLVESGGGLVQPGGSLRLSCAASGFTISDYWIHWVRQAPGKGLEWVAGITPAGGYTYYADSVKGRFTISADTSKNTAYLQMNSLRAEDTAVYYCARFVFFLPYAMDYWGQGTLVTVSS
VL: B4 VL
notes: as for B3
B7: DVD791 (bispecific antibody)
VH: QVQLQESGPGLVKPSQTLSLTCTVSGYSISSDFAWNWIRQPPGKGLEWMGYISYSGNTRYQPSLKSRITISRDTSKNQFFLKLNSVTAADTATYYCVTAGRGFPYWGQGTLVTVSSASTKGPSVFPLAPEVQLVESGGGLVQPGGSLRLSCAASGFTINASWIHWVRQAPGKGLEWVGAIYPYSGYTNYADSVKGRFTISADTSKNTAYLQMNSLRAEDTAVYYCARWGHSTSPWAMDYWGQGTLVTVSS
VL: DIQMTQSPSSMSVSVGDRVTITCHSSQDINSNIGWLQQKPGKSFKGLIYHGTNLDDGVPSRFSGSGSGTDYTLTISSLQPEDFATYYCVQYAQFPWTFGGGTKLEIKRTVAAPSVFIFPPDIQMTQSPSSLSASVGDRVTITCRASQVIRRSLAWYQQKPGKAPKLLIYAASNLASGVPSRFSGSGSGTDFTLTISSLQPEDFATYYCQQSNTSPLTFGQGTKVEIKR
notes: as for B1
B8: DVD821 (bispecific antibody)
VH: B7 VH
VL: DIQMTQSPSSMSVSVGDRVTITCHSSQDINSNIGWLQQKPGKSFKGLIYHGTNLDDGVPSRFSGSGSGTDYTLTISSLQPEDFATYYCVQYAQFPWTFGGGTKLEIKRTVAAPDIQMTQSPSSLSASVGDRVTITCRASQVIRRSLAWYQQKPGKAPKLLIYAASNLASGVPSRFSGSGSGTDFTLTISSLQPEDFATYYCQQSNTSPLTFGQGTKVEIKR
notes: as for B2
B9: DVD851 (bispecific antibody)
VH: QVQLQESGPGLVKPSQTLSLTCTVSGYSISSDFAWNWIRQPPGKGLEWMGYISYSGNTRYQPSLKSRITISRDTSKNQFFLKLNSVTAADTATYYCVTAGRGFPYWGQGTLVTVSSASTKGPEVQLVESGGGLVQPGGSLRLSCAASGFTINASWIHWVRQAPGKGLEWVGAIYPYSGYTNYADSVKGRFTISADTSKNTAYLQMNSLRAEDTAVYYCARWGHSTSPWAMDYWGQGTLVTVSS
VL: B7 VL
notes: as for B3
B10: DVD337 (bispecific antibody)
VH: B3 VH
VL: B2 VL
notes: DVD-Ig; HC S, LC S; variable parts only
B11: DVD848 (bispecific antibody)
VH: EVQLLESGGGLVQPGGSLRLSCAASGFTFSHYVMAWVRQAPGKGLEWVSSISSSGGWTLYADSVKGRFTISRDNSKNTLYLQMNSLRAEDTAVYYCTRGLKMATIFDYWGQGTLVTVSSASTKGPQVQLQESGPGLVKPSQTLSLTCTVSGYSISSDFAWNWIRQPPGKGLEWMGYISYSGNTRYQPSLKSRITISRDTSKNQFFLKLNSVTAADTATYYCVTAGRGFPYWGQGTLVTVSS
VL: QSALTQPASVSGSPGQSITISCTGTSSDVGSYNVVSWYQQHPGKAPKLIIYEVSQRPSGVSNRFSGSKSGNTASLTISGLQTEDEADYYCCSYAGSSIFVIFGGGTKVTVLGQPKAAPSVTLFPPDIQMTQSPSSMSVSVGDRVTITCHSSQDINSNIGWLQQKPGKSFKGLIYHGTNLDDGVPSRFSGSGSGTDYTLTISSLQPEDFATYYCVQYAQFPWTFGGGTKLEIKR
notes: as for B3
B12: DVD756 (bispecific antibody)
VH: B11 VH
VL: QSALTQPASVSGSPGQSITISCTGTSSDVGSYNVVSWYQQHPGKAPKLIIYEVSQRPSGVSNRFSGSKSGNTASLTISGLQTEDEADYYCCSYAGSSIFVIFGGGTKVTVLGQPKAAPDIQMTQSPSSMSVSVGDRVTITCHSSQDINSNIGWLQQKPGKSFKGLIYHGTNLDDGVPSRFSGSGSGTDYTLTISSLQPEDFATYYCVQYAQFPWTFGGGTKLEIKR
notes: as for B10

The binders below were run against T1, VEGF (UniProt P15692-4 27-191, limits assumed, biotinylated) (assay: direct bind ELISA, C-term VD;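 also: ELISA with antibody or DVD-Ig preparations applied to target antigen-coated plates for 1 h at room temperature, TMB colour development, absorbance read at 450 nm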).
T1 construct: ELISA antigen

B1 and B2 are within 1.5-fold of each other in EC50: 0.24 nM for the first, 0.23 nM for the second.

Compared with B3, B4 is 180-fold higher in EC50: 0.26 nM for the first, 46 nM for the second.

First: B5
Second: B6
The EC50 of the first is 1.6-fold lower: 36.4 nM for the first, 59.6 nM for the second.

B7 and B8 are within 1.5-fold of each other in EC50: 11.6 nM for the first, 11.1 nM for the second.

Going from B9 to B10, the EC50 falls from 28.4 nM to 0.57 nM (50-fold).

These binders were tested against T2, EGFR (UniProt P00533 25-645, limits assumed, biotinylated) (assay: direct bind ELISA, C-term VD;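 also: ELISA with antibody or DVD-Ig preparations applied to target antigen-coated plates for 1 h at room temperature, TMB colour development, absorbance read at 450 nm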).
T2 construct: ELISA antigen; construct not described

Compared with B11, B12 is 2.9-fold higher in EC50: 16.7 nM for the first, 48.9 nM for the second.

These binders were tested against T3, ErbB3 (UniProt P21860 20-643, limits assumed, biotinylated) (assay: direct bind ELISA, N-term VD;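 also: antibody or DVD-Ig preparations bound to immobilized target antigen on ELISA plates, 1 h at room temperature, TMB detection read as absorbance at 450 nm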).
T3 construct: ELISA antigen

B11 and B12 are within 1.5-fold of each other in EC50: 3.23 nM for the first, 3.94 nM for the second.

What follows are binders tested against T2, EGFR (assay: direct bind ELISA, N-term VD;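 also: antibody or DVD-Ig preparations bound to immobilized target antigen on ELISA plates, 1 h at room temperature, TMB detection read as absorbance at 450 nm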).

B1 and B2 are within 1.5-fold of each other in EC50: 10.6 nM for the first, 7.34 nM for the second.

B3 and B4 are within 1.5-fold of each other in EC50: 12.5 nM for the first, 14.6 nM for the second.

B5 and B6 are within 1.5-fold of each other in EC50: 12.2 nM for the first, 12.3 nM for the second.

B7 and B8 are within 1.5-fold of each other in EC50: 8.24 nM for the first, 6.96 nM for the second.

B9 and B10 are within 1.5-fold of each other in EC50: 9.36 nM for the first, 6.5 nM for the second.
